# US6551840B2, “Method of screening TGF-β-inhibiting substances” (Chugai Seiyaku Kabushiki Kaisha, priority 1997, dated 2003)
# T1: binding between TAK1 and TAB1 (Homo sapiens, UniProt O43318)
# T1 construct: amino acid Met at amino acid position 1 to amino acid Ser at amino acid position 579; made in house; host or cells: COS-7 cells transfected with pCOS-TAK1 or pCOS-FTAB1; unpurified cell extracts
# T1 sequence (O43318 1-579 isoform O43318-2): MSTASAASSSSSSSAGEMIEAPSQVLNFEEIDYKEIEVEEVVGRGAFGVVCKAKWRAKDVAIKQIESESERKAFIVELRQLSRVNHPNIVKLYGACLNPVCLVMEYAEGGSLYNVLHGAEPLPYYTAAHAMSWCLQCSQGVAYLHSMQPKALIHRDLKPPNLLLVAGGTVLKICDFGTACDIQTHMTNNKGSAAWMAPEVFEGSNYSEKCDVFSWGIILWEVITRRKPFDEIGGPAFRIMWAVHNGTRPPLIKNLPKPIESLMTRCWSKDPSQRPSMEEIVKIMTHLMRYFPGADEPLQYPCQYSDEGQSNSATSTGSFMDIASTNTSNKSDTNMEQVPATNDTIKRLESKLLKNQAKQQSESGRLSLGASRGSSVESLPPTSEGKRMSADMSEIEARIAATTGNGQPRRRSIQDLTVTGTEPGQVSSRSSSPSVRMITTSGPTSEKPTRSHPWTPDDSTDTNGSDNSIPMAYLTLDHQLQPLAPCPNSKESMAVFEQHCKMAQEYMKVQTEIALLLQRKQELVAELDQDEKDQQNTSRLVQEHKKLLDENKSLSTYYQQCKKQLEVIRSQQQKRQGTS
# T2: human TAK1-6×His polypeptide (Homo sapiens, UniProt O43318)
# T2 construct: amino acid Met at amino acid position 1 to amino acid Ser at amino acid position 579; made in house; host or cells: Sf9 insect cells, recombinant baculovirus
# T2 sequence (O43318 1-579 isoform O43318-2): T1 sequence (O43318 1-579 isoform O43318-2)
# T3: binding between the recombinant MBP-TAB1C-FLAG polypeptide and the recombinant TAK1 polypeptide (Homo sapiens, UniProt O43318)
# T3 construct: amino acid Met at amino acid position 1 to amino acid Ser at amino acid position 579; made in house; host or cells: TAK1-6xHis: Sf9/baculovirus; MBP-TAB1C-FLAG: E. coli periplasm (pMAL-p2)
# T3 sequence (O43318 1-579 isoform O43318-2): T1 sequence (O43318 1-579 isoform O43318-2)
# B1: MBP-TAB1C-FLAG: fusion polypeptide of 81 amino acids at the carboxy terminal of human TAB1 and maltose-binding protein, with FLAG tag (protein)
# chain: ASTLDEATPTLTNQSPTLTLQSTNTHTQSSSSSSDGGLFRSRPAHSLPPGEDGRVEPYVDFAEFYRLWSVDHGEQSVVTAPDYKDDDDK
# modifications: left off: large carriers
# B2: TAB1-FLAG: full-length human TAB1 with a FLAG tag added to the carboxy terminal (SEQ ID NO: 11) (protein)
# chain: MAAQRRSLLQSEQQPSWTDDLPLCHLSGVGSASNRSYSADGKGTESHPPEDSWLKFRSENNCFLYGVFNGYDGNRVTNFVAQRLSAELLLGQLNAEHAEADVRRVLLQAFDVVERSFLESIDDALAEKASLQSQLPEGVPQHQLPPQYQKILERLKTLEREISGGAMAVVAVLLNNKLYVANVGTNRALLCKSTVDGLQVTQLNVDHTTENEDELFRLSQLGLDAGKIKQVGIICGQESTRRIGDYKVKYGYTDIDLLSAAKSKPIIAEPEIHGAQPLDGVTGFLVLMSEGLYKALEAAHGPGQANQEIAAMIDTEFAKQTSLDAVAQAVVDRVKRIHSDTFASGGERARFCPRHEDMTLLVRNFGYPLGEMSQPTPSPAPAAGGRVYPVSVPYSSAQSTSKTSVTLSLVMPSQGQMVNGAHSASTLDEATPTLTNQSPTLTLQSTNTHTQSSSSSSDGGLFRSRPAHSLPPGEDGRVEPYVDFAEFYRLWSVDHGEQSVVTAPGTGGSDYKDDDDK
# modifications: C-terminal FLAG tag
# What was measured:
# [1] = biological target: T1, binding between TAK1 and TAB1; experiment: Immunoprecipitation and Western analysis binding-inhibition study using synthetic peptides; set-up: dose or concentration left out as unconfirmed; settings: COS-7 cell extracts with TAK1-6×His or FLAG-TAB1; compared to no peptide
# Excerpt: The fact that a synthetic peptide containing the amino acid sequence identified as the TAK1 binding region can inhibit binding between TAK1 and TAB1 was confirmed by the following experiment. Thus, a peptide TAB1C-1 (SEQ ID NO: 40) comprising 16 amino acid residues containing the TAK1 binding region of TAB1 described in the above Example and a control peptide TAB1C-2 (SEQ ID NO: 41) containing an amino acid sequence from Gln at position 437 to Gln at position 451 of TAB1 were each synthesized, and were evaluated for their effects on the binding between TAK1 and TAB1. The TAK1 and TAB1 used in the present invention were prepared in the following manner. […]
# Subsequently, cell extracts each containing TAK1-6×His or FLAG-TAB1 and a 5 mM synthetic peptide were mixed to a final concentration of […], respectively, and then incubated overnight at 4° C. It was then immunoprecipitated using anti-TAK1 antibody, and the amount of bound TAK1 and TAB1 was evaluated by determining the amount of TAB1 that coprecipitated by Western analysis. […] After it was blocked using a TBS solution containing 5% BSA, TAK1 in the immunoprecipitate was detected using anti-TAK1 antibody (manufactured by SantaCruz) and the coprecipitataed FLAG-TAB1 was detected using anti-FLAG M2 antibody (manufactured by Kodak). […]
# [2] = biological target: T2, human TAK1-6×His polypeptide; experiment: ELISA in vitro binding-evaluation system: MBP-TAB1C-FLAG on immobilized TAK1-6×His; settings: 100 ng TAK1-6×His per well; no increase where TAK1-6×His was not immobilized
# Excerpt: Using the purified product obtained as above an ELISA system was constructed to detect in vitro an interaction between the recombinant human TAB1 polypeptide or the recombinant MBP-TAB1C-FLAG polypeptide and the recombinant human-TAK1 polypeptide. In the ELISA system it is intended to contact the recombinant human TAB1-FLAG polypeptide or the human MBP-TAB1C-FLAG polypeptide to a 96-well immunoplate to which the human TAK1-6×His polypeptide had been previously immobilized and thereby to detect the recombinant human TAB1-FLAG polypeptide or the recombinant MBP-TAB1C-FLAG polypeptide using a primary and secondary antibody.
# (1) The purified product of human TAK1-6×His polypeptide was diluted in the immobilization buffer (0.1 M NaHCO3, 0.02% NaN3, pH 9.6). To each well of a 96-well immunoplate (manufactured by Nunc) was added 100 μl each of the diluted aqueous solution (equivalent to 100 ng of the human TAK1-6×His polypeptide), and the plate was incubated overnight at 4° C. […]
# After each well was washed five times with the wash buffer, 100 μl of the color development solution (the substrate buffer; p-nitrophenyl phosphate dissolved to 1 mg/ml in 50 mM NaHCO3, 10 mM MgCl21 pH 9.8, manufactured by Sigma) was added to each well and was incubated at room temperature, and then absorbance at 405 nm was determined using a microplate reader (Model 3550, manufactured by BIO-RAD).
# [3] = biological target: T3, binding between the recombinant MBP-TAB1C-FLAG polypeptide and the recombinant TAK1 polypeptide; experiment: ELISA binding-inhibition study with TAB1-FLAG as inhibiting substance; settings: serially diluted TAB1-FLAG added together with MBP-TAB1C-FLAG
# Description: It was investigated whether the recombinant human TAB1-FLAG polypeptide used as an inhibiting substance inhibits binding between the recombinant MBP-TAB1C-FLAG polypeptide and the recombinant TAK1 polypeptide.
# In a similar manner to that in the above 5-1 (2), the recombinant human TAK1-6×His polypeptide was immobilized and was blocked. Then the recombinant human TAB1-FLAG polypeptide that was serially diluted in the dilution buffer was added as a binding-inhibiting substance to each well together with 16.5 μl each of the recombinant MBP-TAB1C-FLAG polypeptide and incubated.
Molecule,effect on binding between TAK1 and TAB1: amount of coprecipitated FLAG-TAB1 [1],other results
TAB1C-1: peptide comprising 16 amino acid residues containing the TAK1 binding region of TAB1 (SEQ ID NO: 40) (CVEPYVDFAEFYRGRK; OTHER INFORMATION: Description of Artificial Sequence: Synthetic peptide),a decrease in the amount of coprecipitated FLAG-TAB1 was observed,
TAB1C-2: control peptide containing an amino acid sequence from Gln at position 437 to Gln at position 451 of TAB1 (SEQ ID NO: 41) (CQSPTLTLQSTNTHTQ; OTHER INFORMATION: Description of Artificial Sequence: Synthetic peptide),no decrease in binding between TAK1 and TAB1 was observed,
B1,,"binding to immobilized human TAK1-6×His polypeptide, absorbance at 405 nm [2]: absorbance increased depending on the concentration"
B2,,"inhibition of binding between MBP-TAB1C-FLAG and TAK1-6×His, absorbance [3]: decrease in absorbance dependent on the concentration"
